Molecular target: EBVgp350/220 wild type (full length, BLLF1, EBV strain B95-8) (Epstein-Barr virus strain B95-8) (UniProt P03200)
Test: cell-based or functional assay

Sequence of UniProt P03200 (P03200 whole entry): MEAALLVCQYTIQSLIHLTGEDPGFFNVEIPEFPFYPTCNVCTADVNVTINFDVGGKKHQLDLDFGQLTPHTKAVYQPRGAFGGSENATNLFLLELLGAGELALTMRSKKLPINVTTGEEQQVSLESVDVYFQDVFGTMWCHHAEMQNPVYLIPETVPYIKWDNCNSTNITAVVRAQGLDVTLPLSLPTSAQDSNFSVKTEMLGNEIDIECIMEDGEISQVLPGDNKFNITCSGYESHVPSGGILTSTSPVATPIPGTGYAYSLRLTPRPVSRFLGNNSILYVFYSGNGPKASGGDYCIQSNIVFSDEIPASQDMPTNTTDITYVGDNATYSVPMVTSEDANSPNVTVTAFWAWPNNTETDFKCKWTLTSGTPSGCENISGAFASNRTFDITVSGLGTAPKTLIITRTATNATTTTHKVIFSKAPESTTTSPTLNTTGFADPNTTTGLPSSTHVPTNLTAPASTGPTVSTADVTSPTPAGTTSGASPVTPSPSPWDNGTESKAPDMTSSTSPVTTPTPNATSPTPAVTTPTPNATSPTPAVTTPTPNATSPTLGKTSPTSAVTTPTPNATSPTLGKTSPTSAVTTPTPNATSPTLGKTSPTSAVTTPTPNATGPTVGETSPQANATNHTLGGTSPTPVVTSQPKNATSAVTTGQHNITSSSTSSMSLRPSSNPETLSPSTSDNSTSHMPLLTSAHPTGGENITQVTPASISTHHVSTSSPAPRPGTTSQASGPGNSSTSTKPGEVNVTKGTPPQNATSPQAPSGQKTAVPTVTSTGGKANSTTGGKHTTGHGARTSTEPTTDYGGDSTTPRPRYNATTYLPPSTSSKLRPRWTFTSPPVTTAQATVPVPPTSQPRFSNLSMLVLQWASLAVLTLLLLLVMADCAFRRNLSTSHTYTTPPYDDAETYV

Row | Substance | percent fluorescent (EGFP+) Raji cells after infection with EGFP-EBV pre-incubated with the antibody | percent of EGFP+ Raji cells post-infection
1 | monoclonal antibody mAb-2L10 anti-gp350/220 | 27% | 25%
2 | monoclonal antibody mAb-72A1 anti-gp350/220 | 1% | –

From patent US20200038505A1
